Measured values published in patent US12679878B2, “CRF2 receptor agonists and their use in therapy” (SANOFI, priority 2020, dated 2026).
Starred links: 1 amine or outer side, 2 acyl side, 3 side chain; linkers in the order of their positions; H or OH if unused. Non-standard residues stand in square brackets, D forms with d. Groups on a side chain read outwards from the residue. No end group written: not given here. *: point of attachment. C18 diacid = O=C(O)CCCCCCCCCCCCCCCCC(=O)*; γGlu = O=C(O)[C@H](CCC(=O)[*:2])N[*:1]; Palmitoyl = CCCCCCCCCCCCCCCC(=O)*; AEEA = NCCOCCOCC(=O)O; Aib = CC(C)(N)C(=O)O

B1: SEQ ID NO: 98 (peptide)
peptide: IVLSLDVPIKLK([AEEA-AEEA-γGlu-C18 diacid])QKLLKQERQKK[Aib]REQAETNKQILAQV-NH2
modifications: N-terminus assumed
SMILES: CC[C@H](C)[C@H](N)C(=O)N[C@H](C(=O)N[C@@H](CC(C)C)C(=O)N[C@@H](CO)C(=O)N[C@@H](CC(C)C)C(=O)N[C@@H](CC(=O)O)C(=O)N[C@H](C(=O)N1CCC[C@H]1C(=O)N[C@H](C(=O)N[C@@H](CCCCN)C(=O)N[C@@H](CC(C)C)C(=O)N[C@@H](CCCCNC(=O)COCCOCCNC(=O)COCCOCCNC(=O)CC[C@H](NC(=O)CCCCCCCCCCCCCCCCC(=O)O)C(=O)O)C(=O)N[C@@H](CCC(N)=O)C(=O)N[C@@H](CCCCN)C(=O)N[C@@H](CC(C)C)C(=O)N[C@@H](CC(C)C)C(=O)N[C@@H](CCCCN)C(=O)N[C@@H](CCC(N)=O)C(=O)N[C@@H](CCC(=O)O)C(=O)N[C@@H](CCCNC(=N)N)C(=O)N[C@@H](CCC(N)=O)C(=O)N[C@@H](CCCCN)C(=O)N[C@@H](CCCCN)C(=O)NC(C)(C)C(=O)N[C@@H](CCCNC(=N)N)C(=O)N[C@@H](CCC(=O)O)C(=O)N[C@@H](CCC(N)=O)C(=O)N[C@@H](C)C(=O)N[C@@H](CCC(=O)O)C(=O)N[C@H](C(=O)N[C@@H](CC(N)=O)C(=O)N[C@@H](CCCCN)C(=O)N[C@@H](CCC(N)=O)C(=O)N[C@H](C(=O)N[C@@H](CC(C)C)C(=O)N[C@@H](C)C(=O)N[C@@H](CCC(N)=O)C(=O)N[C@H](C(N)=O)C(C)C)[C@@H](C)CC)[C@@H](C)O)[C@@H](C)CC)C(C)C)C(C)C
B2: SEQ ID NO: 96 (peptide)
peptide: IVLSLDVPIKLK([AEEA-AEEA-γGlu-C18 diacid])QILLKQERQKKEREQAETNKQILAQV-NH2
modifications: N-terminus assumed
SMILES: CC[C@H](C)[C@H](N)C(=O)N[C@H](C(=O)N[C@@H](CC(C)C)C(=O)N[C@@H](CO)C(=O)N[C@@H](CC(C)C)C(=O)N[C@@H](CC(=O)O)C(=O)N[C@H](C(=O)N1CCC[C@H]1C(=O)N[C@H](C(=O)N[C@@H](CCCCN)C(=O)N[C@@H](CC(C)C)C(=O)N[C@@H](CCCCNC(=O)COCCOCCNC(=O)COCCOCCNC(=O)CC[C@H](NC(=O)CCCCCCCCCCCCCCCCC(=O)O)C(=O)O)C(=O)N[C@@H](CCC(N)=O)C(=O)N[C@H](C(=O)N[C@@H](CC(C)C)C(=O)N[C@@H](CC(C)C)C(=O)N[C@@H](CCCCN)C(=O)N[C@@H](CCC(N)=O)C(=O)N[C@@H](CCC(=O)O)C(=O)N[C@@H](CCCNC(=N)N)C(=O)N[C@@H](CCC(N)=O)C(=O)N[C@@H](CCCCN)C(=O)N[C@@H](CCCCN)C(=O)N[C@@H](CCC(=O)O)C(=O)N[C@@H](CCCNC(=N)N)C(=O)N[C@@H](CCC(=O)O)C(=O)N[C@@H](CCC(N)=O)C(=O)N[C@@H](C)C(=O)N[C@@H](CCC(=O)O)C(=O)N[C@H](C(=O)N[C@@H](CC(N)=O)C(=O)N[C@@H](CCCCN)C(=O)N[C@@H](CCC(N)=O)C(=O)N[C@H](C(=O)N[C@@H](CC(C)C)C(=O)N[C@@H](C)C(=O)N[C@@H](CCC(N)=O)C(=O)N[C@H](C(N)=O)C(C)C)[C@@H](C)CC)[C@@H](C)O)[C@@H](C)CC)[C@@H](C)CC)C(C)C)C(C)C
B3: SEQ ID NO: 97 (peptide)
peptide: IVLSLDVPIKLK([AEEA-AEEA-γGlu-C18 diacid])QKLLKQERQKKQREQAETNKQILAQV-NH2
modifications: N-terminus assumed
SMILES: CC[C@H](C)[C@H](N)C(=O)N[C@H](C(=O)N[C@@H](CC(C)C)C(=O)N[C@@H](CO)C(=O)N[C@@H](CC(C)C)C(=O)N[C@@H](CC(=O)O)C(=O)N[C@H](C(=O)N1CCC[C@H]1C(=O)N[C@H](C(=O)N[C@@H](CCCCN)C(=O)N[C@@H](CC(C)C)C(=O)N[C@@H](CCCCNC(=O)COCCOCCNC(=O)COCCOCCNC(=O)CC[C@H](NC(=O)CCCCCCCCCCCCCCCCC(=O)O)C(=O)O)C(=O)N[C@@H](CCC(N)=O)C(=O)N[C@@H](CCCCN)C(=O)N[C@@H](CC(C)C)C(=O)N[C@@H](CC(C)C)C(=O)N[C@@H](CCCCN)C(=O)N[C@@H](CCC(N)=O)C(=O)N[C@@H](CCC(=O)O)C(=O)N[C@@H](CCCNC(=N)N)C(=O)N[C@@H](CCC(N)=O)C(=O)N[C@@H](CCCCN)C(=O)N[C@@H](CCCCN)C(=O)N[C@@H](CCC(N)=O)C(=O)N[C@@H](CCCNC(=N)N)C(=O)N[C@@H](CCC(=O)O)C(=O)N[C@@H](CCC(N)=O)C(=O)N[C@@H](C)C(=O)N[C@@H](CCC(=O)O)C(=O)N[C@H](C(=O)N[C@@H](CC(N)=O)C(=O)N[C@@H](CCCCN)C(=O)N[C@@H](CCC(N)=O)C(=O)N[C@H](C(=O)N[C@@H](CC(C)C)C(=O)N[C@@H](C)C(=O)N[C@@H](CCC(N)=O)C(=O)N[C@H](C(N)=O)C(C)C)[C@@H](C)CC)[C@@H](C)O)[C@@H](C)CC)C(C)C)C(C)C
B4: SEQ ID NO: 99 (peptide)
peptide: IVLSLDVPIKLK([AEEA-AEEA-γGlu-C18 diacid])KILLKQERQKK[Aib]REQAEKNKQILAQV-NH2
modifications: N-terminus assumed
SMILES: CC[C@H](C)[C@H](N)C(=O)N[C@H](C(=O)N[C@@H](CC(C)C)C(=O)N[C@@H](CO)C(=O)N[C@@H](CC(C)C)C(=O)N[C@@H](CC(=O)O)C(=O)N[C@H](C(=O)N1CCC[C@H]1C(=O)N[C@H](C(=O)N[C@@H](CCCCN)C(=O)N[C@@H](CC(C)C)C(=O)N[C@@H](CCCCNC(=O)COCCOCCNC(=O)COCCOCCNC(=O)CC[C@H](NC(=O)CCCCCCCCCCCCCCCCC(=O)O)C(=O)O)C(=O)N[C@@H](CCCCN)C(=O)N[C@H](C(=O)N[C@@H](CC(C)C)C(=O)N[C@@H](CC(C)C)C(=O)N[C@@H](CCCCN)C(=O)N[C@@H](CCC(N)=O)C(=O)N[C@@H](CCC(=O)O)C(=O)N[C@@H](CCCNC(=N)N)C(=O)N[C@@H](CCC(N)=O)C(=O)N[C@@H](CCCCN)C(=O)N[C@@H](CCCCN)C(=O)NC(C)(C)C(=O)N[C@@H](CCCNC(=N)N)C(=O)N[C@@H](CCC(=O)O)C(=O)N[C@@H](CCC(N)=O)C(=O)N[C@@H](C)C(=O)N[C@@H](CCC(=O)O)C(=O)N[C@@H](CCCCN)C(=O)N[C@@H](CC(N)=O)C(=O)N[C@@H](CCCCN)C(=O)N[C@@H](CCC(N)=O)C(=O)N[C@H](C(=O)N[C@@H](CC(C)C)C(=O)N[C@@H](C)C(=O)N[C@@H](CCC(N)=O)C(=O)N[C@H](C(N)=O)C(C)C)[C@@H](C)CC)[C@@H](C)CC)[C@@H](C)CC)C(C)C)C(C)C
B5: SEQ ID NO: 100 (peptide)
peptide: IVLSLDVPIKLK([AEEA-AEEA-γGlu-C18 diacid])KILLKQERQKK[Aib]REQAETN[Aib]QILAQV-NH2
modifications: N-terminus assumed
SMILES: CC[C@H](C)[C@H](N)C(=O)N[C@H](C(=O)N[C@@H](CC(C)C)C(=O)N[C@@H](CO)C(=O)N[C@@H](CC(C)C)C(=O)N[C@@H](CC(=O)O)C(=O)N[C@H](C(=O)N1CCC[C@H]1C(=O)N[C@H](C(=O)N[C@@H](CCCCN)C(=O)N[C@@H](CC(C)C)C(=O)N[C@@H](CCCCNC(=O)COCCOCCNC(=O)COCCOCCNC(=O)CC[C@H](NC(=O)CCCCCCCCCCCCCCCCC(=O)O)C(=O)O)C(=O)N[C@@H](CCCCN)C(=O)N[C@H](C(=O)N[C@@H](CC(C)C)C(=O)N[C@@H](CC(C)C)C(=O)N[C@@H](CCCCN)C(=O)N[C@@H](CCC(N)=O)C(=O)N[C@@H](CCC(=O)O)C(=O)N[C@@H](CCCNC(=N)N)C(=O)N[C@@H](CCC(N)=O)C(=O)N[C@@H](CCCCN)C(=O)N[C@@H](CCCCN)C(=O)NC(C)(C)C(=O)N[C@@H](CCCNC(=N)N)C(=O)N[C@@H](CCC(=O)O)C(=O)N[C@@H](CCC(N)=O)C(=O)N[C@@H](C)C(=O)N[C@@H](CCC(=O)O)C(=O)N[C@H](C(=O)N[C@@H](CC(N)=O)C(=O)NC(C)(C)C(=O)N[C@@H](CCC(N)=O)C(=O)N[C@H](C(=O)N[C@@H](CC(C)C)C(=O)N[C@@H](C)C(=O)N[C@@H](CCC(N)=O)C(=O)N[C@H](C(N)=O)C(C)C)[C@@H](C)CC)[C@@H](C)O)[C@@H](C)CC)[C@@H](C)CC)C(C)C)C(C)C
B6: SEQ ID NO: 101 (peptide)
peptide: IVLSLDVPIKLK([AEEA-AEEA-γGlu-C18 diacid])KILLKQERQKK[Aib]REQAETNKQILERV-NH2
modifications: N-terminus assumed
SMILES: CC[C@H](C)[C@H](N)C(=O)N[C@H](C(=O)N[C@@H](CC(C)C)C(=O)N[C@@H](CO)C(=O)N[C@@H](CC(C)C)C(=O)N[C@@H](CC(=O)O)C(=O)N[C@H](C(=O)N1CCC[C@H]1C(=O)N[C@H](C(=O)N[C@@H](CCCCN)C(=O)N[C@@H](CC(C)C)C(=O)N[C@@H](CCCCNC(=O)COCCOCCNC(=O)COCCOCCNC(=O)CC[C@H](NC(=O)CCCCCCCCCCCCCCCCC(=O)O)C(=O)O)C(=O)N[C@@H](CCCCN)C(=O)N[C@H](C(=O)N[C@@H](CC(C)C)C(=O)N[C@@H](CC(C)C)C(=O)N[C@@H](CCCCN)C(=O)N[C@@H](CCC(N)=O)C(=O)N[C@@H](CCC(=O)O)C(=O)N[C@@H](CCCNC(=N)N)C(=O)N[C@@H](CCC(N)=O)C(=O)N[C@@H](CCCCN)C(=O)N[C@@H](CCCCN)C(=O)NC(C)(C)C(=O)N[C@@H](CCCNC(=N)N)C(=O)N[C@@H](CCC(=O)O)C(=O)N[C@@H](CCC(N)=O)C(=O)N[C@@H](C)C(=O)N[C@@H](CCC(=O)O)C(=O)N[C@H](C(=O)N[C@@H](CC(N)=O)C(=O)N[C@@H](CCCCN)C(=O)N[C@@H](CCC(N)=O)C(=O)N[C@H](C(=O)N[C@@H](CC(C)C)C(=O)N[C@@H](CCC(=O)O)C(=O)N[C@@H](CCCNC(=N)N)C(=O)N[C@H](C(N)=O)C(C)C)[C@@H](C)CC)[C@@H](C)O)[C@@H](C)CC)[C@@H](C)CC)C(C)C)C(C)C

These binders were tested against human corticotropin-releasing factor 2α (CRF2 α receptor) (human), Q13324 (assay: cell-based or functional assay).
Sequence of human corticotropin-releasing factor 2α (CRF2 α receptor) (human), Q13324 (Q13324 20-411): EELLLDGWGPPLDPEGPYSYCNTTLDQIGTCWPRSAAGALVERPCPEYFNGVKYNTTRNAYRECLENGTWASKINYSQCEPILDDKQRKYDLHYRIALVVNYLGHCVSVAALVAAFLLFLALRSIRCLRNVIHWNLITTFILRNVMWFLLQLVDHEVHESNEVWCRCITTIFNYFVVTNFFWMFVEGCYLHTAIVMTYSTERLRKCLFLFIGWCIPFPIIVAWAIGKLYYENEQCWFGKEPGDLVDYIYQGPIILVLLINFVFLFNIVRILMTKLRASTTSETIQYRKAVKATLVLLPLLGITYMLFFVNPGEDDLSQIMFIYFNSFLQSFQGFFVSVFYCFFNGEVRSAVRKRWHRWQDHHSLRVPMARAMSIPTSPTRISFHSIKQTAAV

| EC50 [nM], 0% HSA [nM] | EC50 [nM], 0.1% HSA [nM] | Binder |
| --- | --- | --- |
| 2.36 |  | B1 |
| 0.38 |  | B2 |
| 0.02 | 0.03 | IVLSLD[dV]PTKLK([γGlu-Palmitoyl])QKLLKQERQRKEREQAEKNARILARV-NH2 [SEQ ID NO: 7] |
| 1.66 |  | B3 |
| 0.06 | 1.6 | B4 |
| 0.51 | 20.5 | B5 |
| 0.11 | 4.28 | B6 |
